We go through 2 substances from article PMC13379313.

Broadly, the stoichiometry N is the number of molecules, sites or subunits per partner or assembly.

For test [1], the target named is TW1 (DtxR-Geminin coiled-coil-SpyCatcher) (UniProt P0DJL7). In words: mass photometry; TW1, TW2 or assembled TW at a final concentration of 10 nM on the slide; 25 mM HEPES pH 7.4, 200 mM KCl, 5 mM MgCl2, 0.2 mM EDTA.
Test [2] has as its target TW2 (TrpR-Geminin coiled-coil-SpyTag-Geminin coiled-coil-MetJ) (UniProt P0A881). Described as above.

Take “TW1 (DtxR-Geminin coiled-coil-SpyCatcher) (from UniProt P0DJL7 2-121; O75496 110-145)”: the stoichiometry N in test [1] is 2.

“TW2 (TrpR-Geminin coiled-coil-SpyTag-Geminin coiled-coil-MetJ) (from UniProt P0A881 2-10; O75496 110-145; O75496 110-145; P0A8U6 2-105)” showed a stoichiometry N in test [2] of 2.
